Here are results for one molecule from article PMC11371828 (Nature Communications, 2024).

Where a chain is given by its changes, count along the chain named.

Test [1] concerns the target T1, 6xHis-IKKβ(1-669) EE (human, UniProt O14920 1-669, S177E | S181E).
T1 sequence (looked up): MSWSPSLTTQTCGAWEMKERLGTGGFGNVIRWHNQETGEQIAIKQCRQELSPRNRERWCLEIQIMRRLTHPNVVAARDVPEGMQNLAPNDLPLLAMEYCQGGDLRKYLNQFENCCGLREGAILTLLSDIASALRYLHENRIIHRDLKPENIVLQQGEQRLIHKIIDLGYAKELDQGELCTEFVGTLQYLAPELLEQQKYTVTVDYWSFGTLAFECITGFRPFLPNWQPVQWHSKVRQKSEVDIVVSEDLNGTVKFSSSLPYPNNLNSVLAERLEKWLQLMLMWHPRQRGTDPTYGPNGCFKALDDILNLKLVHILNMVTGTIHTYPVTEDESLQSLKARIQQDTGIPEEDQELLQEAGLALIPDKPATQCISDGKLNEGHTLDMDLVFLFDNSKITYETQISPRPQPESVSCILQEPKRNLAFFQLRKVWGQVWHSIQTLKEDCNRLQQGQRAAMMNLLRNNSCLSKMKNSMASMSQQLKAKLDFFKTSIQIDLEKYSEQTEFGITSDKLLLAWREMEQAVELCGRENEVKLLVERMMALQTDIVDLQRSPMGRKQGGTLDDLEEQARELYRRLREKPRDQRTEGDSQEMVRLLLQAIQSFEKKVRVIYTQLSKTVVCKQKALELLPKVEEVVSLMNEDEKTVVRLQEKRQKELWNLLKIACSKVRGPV
Briefly: pull-down.

In test [2] the target is T2, 6xHis-IKKβ(1-669) EE R460E (human, UniProt O14920 1-669, S177E | S181E | R460E).
T2 sequence (looked up): T1 sequence (looked up) with R460E
Put plainly: pull-down.

Take DELPYDDCVFGGQRLTL (peptide, UniProt P25963 301-317, looked up) [MBP-IκBα pep(s)]: the binding result in test [1] and in test [2] was “binds” each time.
